The results in this text go back to the supplement of paper PMC11246515.

± gives the standard deviation of the averaged measurements. A value given as a limit tells only on which side of the number the result lay.

A short description of the data set: total protein half-life in vivo (active degradation + dilution); higher = more stable protein.
The mark [1] stands for this setting: E. coli NCM3722 delta-clpP delta-lon delta-hslV, growth: N-lim chemostat, doubling time 6 h.
The mark [2] stands for this setting: E. coli NCM3722 delta-clpP, growth: N-lim chemostat, doubling time 6 h.
[3] abbreviates: E. coli NCM3722 delta-hslV, growth: N-lim chemostat, doubling time 6 h.
The mark [4] stands for this setting: E. coli NCM3722 delta-lon, growth: N-lim chemostat, doubling time 6 h.
Setting [5] is: E. coli NCM3722 delta-smpB, growth: N-lim chemostat, doubling time 6 h.
Setting [6] is: wild type E. coli NCM3722, growth: C-lim chemostat, doubling time 3 h.
Setting [7] is: wild type E. coli NCM3722, growth: C-lim chemostat, doubling time 6 h.
The mark [8] stands for this setting: wild type E. coli NCM3722, growth: C-lim chemostat, doubling time 12 h.
[9] abbreviates: wild type E. coli NCM3722, growth: N-lim chemostat, doubling time 6 h.
Setting [10] is: wild type E. coli NCM3722, growth: N-lim chemostat, doubling time 12 h.
The mark [11] stands for this setting: wild type E. coli NCM3722, growth: P-lim chemostat, doubling time 6 h.
The mark [12] stands for this setting: wild type E. coli NCM3722, growth: P-lim chemostat, doubling time 12 h.

“MINYGVVGVGYFGAELARFMNMHDNAKITCVYDPENGENIARELQCINMSSLDALVSSKLVDCVIVATPNYLHKEPVIKAAKNKKHVFCEKPIALSYEDCVDMVKACKEAGVTFMAGHIMNFFNGVQYARKLIKEGVIGEILSCHTKRNGWENKQERLSWKKMKEQSGGHLYHHIHELDCVQHLLGEIPETVTMIGGNLAHSGPGFGNEDDMLFMTLEFPSGKLATLEWGSAFNWPEHYVIINGTKGSIKIDMQETAGSLRIGGQTKHFLVHETQEEDDDRRKGNMTSEMDGAIAYGHPGKKTPLWLASLIRKETLFLHNILCGAKPEEDYIDLLNGEAAMSAIATADAATLSRSQDRKVKISEIIKHTSVM”: the “total protein half-life in vivo” value by setting is: under setting [1], 5.16 h; under setting [2], 4.32 h; under setting [3], 4.31 ± 0.18 h; under setting [4], 4.79 ± 0.4 h; under setting [5], 4.29 ± 0.068 h; under setting [6], 2.75 ± 0.66 h. Besides, the “total protein half-life in vivo” value under setting [7] was 6.07 ± 0.59 h; the “total protein half-life in vivo” value under setting [8] was 11.2 ± 1.7 h; the “total protein half-life in vivo” value under setting [9] was 4.39 ± 0.38 h; the “total protein half-life in vivo” value under setting [10] is 7.48 ± 0.85 h; the “total protein half-life in vivo” value under setting [11] turned out to be 6.27 ± 0.24 h; the “total protein half-life in vivo” value under setting [12] worked out at 13.4 ± 1.4 h.

As to “MHNDKDLSTWQTFRRLWPTIAPFKAGLIVAGVALILNAASDTFMLSLLKPLLDDGFGKTDRSVLVWMPLVVIGLMILRGITSYVSSYCISWVSGKVVMTMRRRLFGHMMGMPVSFFDKQSTGTLLSRITYDSEQVASSSSGALITVVREGASIIGLFIMMFYYSWQLSIILIVLAPIVSIAIRVVSKRFRNISKNMQNTMGQVTTSAEQMLKGHKEVLIFGGQEVETKRFDKVSNRMRLQGMKMVSASSISDPIIQLIASLALAFVLYAASFPSVMDSLTAGTITVVFSSMIALMRPLKSLTNVNAQFQRGMAACQTLFTILDSEQEKDEGKRVIERATGDVEFRNVTFTYPGRDVPALRNINLKIPAGKTVALVGRSGSGKSTIASLITRFYDIDEGEILMDGHDLREYTLASLRNQVALVSQNVHLFNDTVANNIAYARTEQYSREQIEEAARMAYAMDFINKMDNGLDTVIGENGVLLSGGQRQRIAIARALLRDSPILILDEATSALDTESERAIQAALDELQKNRTSLVIAHRLSTIEKADEIVVVEDGVIVERGTHNDLLEHRGVYAQLHKMQFGQ”, the “total protein half-life in vivo” value reads like this: under setting [1], 5.89 ± 0.51 h; under setting [2], 5.99 ± 0.27 h; under setting [3], 6.35 ± 0.47 h; under setting [4], 6.51 ± 0.63 h; under setting [5], 6.04 ± 0.25 h; under setting [6], 3.38 ± 0.053 h. The “total protein half-life in vivo” value worked out at 5.63 ± 0.13 h under setting [7]; 11.4 ± 3 h under setting [8]; 6.15 ± 0.19 h under setting [9]; 5.9 ± 0.39 h under setting [11]; 11.3 ± 0.23 h under setting [12].

For “MEKKLPRIKALLTPGEVAKRSGVAVSALHFYESKGLITSIRNSGNQRRYKRDVLRYVAIIKIAQRIGIPLATIGEAFGVLPEGHTLSAKEWKQLSSQWREELDRRIHTLVALRDELDGCIGCGCLSRSDCPLRNPGDRLGEEGTGARLLEDEQN [P0ACS2]”, the “total protein half-life in vivo” value under setting [1] turned out to be 4.33 ± 0.31 h; the “total protein half-life in vivo” value under setting [2] is 1.34 h; the “total protein half-life in vivo” value under setting [4] was found to be 2.45 h; the “total protein half-life in vivo” value under setting [5] was determined as 1.49 h; the “total protein half-life in vivo” value under setting [7] was 2.35 h; the “total protein half-life in vivo” value under setting [8] turned out to be 3.19 ± 0.38 h. For the same sequence, under setting [9], the “total protein half-life in vivo” value was found to be 1.33 h.

Consider “MNLEKINELTAQDMAGVNAAILEQLNSDVQLINQLGYYIVSGGGKRIRPMIAVLAARAVGYEGNAHVTIAALIEFIHTATLLHDDVVDESDMRRGKATANAAFGNAASVLVGDFIYTRAFQMMTSLGSLKVLEVMSEAVNVIAEGEVLQLMNVNDPDITEENYMRVIYSKTARLFEAAAQCSGILAGCTPEEEKGLQDYGRYLGTAFQLIDDLLDYNADGEQLGKNVGDDLNEGKPTLPLLHAMHHGTPEQAQMIRTAIEQGNGRHLLEPVLEAMNACGSLEWTRQRAEEEADKAIAALQVLPDTPWREALIGLAHIAVQRDR [P0AD57]”, for which the “total protein half-life in vivo” value by setting is: under setting [1], 4.19 ± 0.56 h; under setting [2], 4.1 ± 0.06 h; under setting [3], 3.69 ± 0.19 h; under setting [4], 5.2 ± 0.3 h; under setting [5], 4.09 ± 0.18 h; under setting [6], 3.02 ± 0.1 h. For the same sequence, the “total protein half-life in vivo” value came out at 5.42 ± 0.15 h under setting [7]; 9.86 ± 0.44 h under setting [8]; 3.93 ± 0.17 h under setting [9]; 6.372 ± 0.062 h under setting [10]; 5.64 ± 0.61 h under setting [11]; 11.4 ± 0.24 h under setting [12].

Regarding “MRWQGRRESDNVEDRRNSSGGPSMGGPGFRLPSGKGGLILLIVVLVAGYYGVDLTGLMTGQPVSQQQSTRSISPNEDEAAKFTSVILATTEDTWGQQFEKMGKTYQQPKLVMYRGMTRTGCGAGQSIMGPFYCPADGTVYIDLSFYDDMKDKLGADGDFAQGYVIAHEVGHHVQKLLGIEPKVRQLQQNATQAEVNRLSVRMELQADCFAGVWGHSMQQQGVLETGDLEEALNAAQAIGDDRLQQQSQGRVVPDSFTHGTSQQRYSWFKRGFDSGDPAQCNTFGKSI”, the “total protein half-life in vivo” value under setting [1] was 5.3 ± 0.69 h; the “total protein half-life in vivo” value under setting [2] is 6.06 ± 0.32 h; the “total protein half-life in vivo” value under setting [3] came out at 5.36 ± 0.17 h; the “total protein half-life in vivo” value under setting [5] came out at 4.87 ± 0.34 h; the “total protein half-life in vivo” value under setting [6] was found to be 2.861 ± 0.027 h; the “total protein half-life in vivo” value under setting [7] was found to be 5.19 ± 0.22 h. In addition, the “total protein half-life in vivo” value under setting [8] amounted to 7.6 ± 3 h; the “total protein half-life in vivo” value under setting [9] came out at 5.54 ± 0.5 h; the “total protein half-life in vivo” value under setting [10] was 11.2 ± 2 h; the “total protein half-life in vivo” value under setting [11] was determined as 3.37 ± 0.57 h; the “total protein half-life in vivo” value under setting [12] was found to be 8.39 ± 3.7 h.

As for “MSGDILQTPDAPKPQGALDNYFKITARGSTVRQEVLAGLTTFLAMVYSVIVVPGMLGKAGFPPAAVFVATCLVAGFGSLLMGLWANLPMAIGCAISLTAFTAFSLVLGQQISVPVALGAVFLMGVIFTAISVTGVRTWILRNLPMGIAHGTGIGIGLFLLLIAANGVGMVIKNPIEGLPVALGAFTSFPVMMSLLGLAVIFGLEKCRVPGGILLVIIAISIIGLIFDPAVKYHGLVAMPSLTGEDGKSLIFSLDIMGALQPTVLPSVLALVMTAVFDATGTIRAVAGQANLLDKDNQIINGGKALTSDSVSSIFSGLVGAAPAAVYIESAAGTAAGGKTGLTATVVGALFLLILFLSPLSFLIPGYATAPALMYVGLLMLSNVSKLDFNDFIDAMAGLVCAVFIVLTCNIVTGIMLGFVTLVVGRVFAREWQKLNIGTVIITAALVAFYAGGWAI”, the “total protein half-life in vivo” value runs as follows: under setting [1], 4.51 ± 0.38 h; under setting [2], 5.04 ± 0.2 h; under setting [3], 5.05 h; under setting [4], 4.88 h; under setting [5], 4.98 ± 0.49 h; under setting [6], 3.28 ± 0.56 h. The “total protein half-life in vivo” value by setting is: under setting [7], 4.99 ± 0.19 h; under setting [9], 4.98 h; under setting [10], 9.21 ± 0.52 h; under setting [11], over 8 h; under setting [12], 9.89 ± 0.52 h.

On to “MSALFLAIPLTIFVLFVLPIWLWLHYSNRSGRSELSQSEQQRLAQLADEAKRMRERIQALESILDAEHPNWRDR [P0AFM9]”, for which the “total protein half-life in vivo” value by setting is: under setting [1], 6.51 ± 0.1 h; under setting [2], 6.06 h; under setting [3], 6.22 ± 0.43 h; under setting [4], 5.01 ± 1.7 h; under setting [5], 6.04 ± 0.43 h; under setting [6], 2.84 ± 0.24 h. Also, the “total protein half-life in vivo” value came out at 5.55 ± 1.4 h under setting [7]; 13.4 ± 2.2 h under setting [8]; 6.02 ± 0.28 h under setting [9]; 4.5 ± 1.6 h under setting [11]; 12.1 ± 0.9 h under setting [12].
